# Measurements published in US20210024639A1 (AGOMAB THERAPEUTICS, published 2021).
# Positions count from the first letter of the chain named.
# B1: chimeric llama-human IgG1 mAb 71D6 (antibody, V domains shown)
# VH: ELQLVESGGGLVQPGGSLRLSCAASGFTFSSYGMSWVRQAPGKGLEWVSAINSYGGSTSYADSVKGRFTISRDNAKNTLYLQMNSLKPEDTAVYYCAKEVRADLSRYNDYESYDYWGQGTQVTVSS
# VL: QPVLNQPSALSVTLGQTAKITCQGGSLGARYAHWYQQKPGQAPVLVIYDDDSRPSGIPERFSGSSSGGTATLTISGAQAEDEGDYYCQSADSSGSVFGGGTHLTVL
# B2: chimeric llama-human IgG1 mAb 71C3 (antibody, V domains shown)
# VH: B1 VH with E1Q, Y32H, G33A, Y54G, V100L, A102F, S105A, N108T, S112A, Y113W
# VL: SYELTQPSALSVTLGQTAKITCQGGSLGSSYAHWYQQKPGQAPVLVIYDDDSRPSGIPERFSGSSSGGTATLTISGAQAEDEGDYYCQSADSSGNAAVFGGGTHLTVL
# B3: chimeric llama-human IgG1 mAb 71D4 (antibody, V domains shown)
# VH: B1 VH with S31G, A50D, Y54G, E99D, V100M, A102L, D103Y, S105A, S112A, Y113W
# VL: B2 VL with Y2S, E3A
# B4: chimeric llama-human IgG1 mAb 71A3 (antibody, V domains shown)
# VH: EVQLVESGGGLVQPGGSLRLSCAASGFSFKDYDITWVRQAPGKGLEWVSTITSRSGSTSYVDSVKGRFTISGDNAKNTLYLQMNSLKPEDTAVYYCAKVYATTWDVGPLGYGMDYWGKGTLVTVSS
# VL: B2 VL
# Biological target: T1, native human MET on living human cells (human, UniProt P08581 25-1390)
# T1 construct: whole, on cells; also called Human cells (A549); HPAF-II
# Assay: flow cytometry, A549 cells
# Protocol: (§1) We also analysed whether chimeric anti-MET antibodies bound to native human and mouse MET in living cells. […] Antibody binding to cells was analysed by flow cytometry using phycoerythrin-conjugated anti-human IgG1 antibodies (eBioscience) and a CyAn ADP analyser (Beckman Coulter). As a positive control for human MET binding, we used a commercial mouse anti-human MET antibody (R&D Systems) and phycoerythrin-conjugated anti-mouse IgG1 antibodies (eBioscience). As a positive control for mouse MET binding we used a commercial goat anti-mouse MET antibody (R&D Systems) and phycoerythrin-conjugated anti-goat IgG1 antibodies (eBioscience). […] Consistent with the data obtained in ELISA, maximal binding (EMAX) varied depending on antibody, but was similar in human and mouse cells.
row,Binder,EMAX (% relative to control)
1,B1,113%
2,B2,106%
3,B3,107%
4,B4,161%

# Biological target: T2, human MET extracellular domain (ECD) (human, UniProt P08581 25-932)
# T2 construct: range 1-932; recombinant ECD; also called hMET; human MET ECD
# Assay: ELISA, MET ECD in solid phase, mAb 0-50 nM
# Protocol: Using human MET as a template, we mutagenized each of these residues in different permutations, generating a series of MET mutants that are fully human except for specific residues, which are llama. Next, we tested the affinity of selected SEMA-binding mAbs (71D6, 71C3, 71D4, 71A3, 71G2) and PSI-binding mAbs (76H10 and 71G3) for these MET mutants by ELISA. To this end, the various MET proteins were immobilized in solid phase (100 ng/well in a 96-well plate) and then exposed to increasing concentrations of antibodies (0-50 nM) solution. […] Wild-type human MET was used as positive control.
# TABLE 18 The epitopes of MET responsible for agonistic antibody binding represent residues conserved among H. sapiens, M. musculus, R. norvegicus, M. fascicularis but not among the same species and L. glama. The relevance of residues conserved among human, mouse, rat, cynomolgus monkey but not llama MET for binding to agonistic mAbs was tested by ELISA. Wild-type (WT) or mutant (MT) human MET ECD was immobilized in solid phase and exposed to increasing concentrations of mAbs in solution. […] All binding values were normalized to the WT protein and are expressed as % binding (EMAX) compared to WT MET.
row,Binder,% binding (EMAX) compared to WT MET
1,B1,100%
2,B2,100%
3,B3,100%
4,B4,100%

# Biological target: T3, native mouse MET on living mouse cells (mouse, UniProt P16056 25-1379)
# Assay: cell-based or functional assay
Binder,"cell scattering score, MLP29, 0.001 nM","cell scattering score, MLP29, 0.004 nM","cell scattering score, MLP29, 0.012 nM","cell scattering score, MLP29, 0.037 nM","cell scattering score, MLP29, 0.111 nM","cell scattering score, MLP29, 0.333 nM","cell scattering score, MLP29, 1.000 nM","cell scattering score, MLP29, 3.000 nM","cell scattering score, MLP29, 9.000 nM"
B1,0 score 0-4,1 score 0-4,2 score 0-4,3 score 0-4,4 score 0-4,4 score 0-4,4 score 0-4,4 score 0-4,4 score 0-4
B2,0 score 0-4,0 score 0-4,0 score 0-4,0 score 0-4,1 score 0-4,2 score 0-4,3 score 0-4,4 score 0-4,4 score 0-4
B3,0 score 0-4,0 score 0-4,0 score 0-4,0 score 0-4,0 score 0-4,0 score 0-4,1 score 0-4,2 score 0-4,2 score 0-4
B4,0 score 0-4,0 score 0-4,2 score 0-4,3 score 0-4,3 score 0-4,4 score 0-4,4 score 0-4,4 score 0-4,4 score 0-4

# Biological target: T1, native human MET on living human cells
# Assay: cell-based or functional assay
Binder,"cell scattering score, HPAF-II, 0.001 nM","cell scattering score, HPAF-II, 0.004 nM","cell scattering score, HPAF-II, 0.012 nM","cell scattering score, HPAF-II, 0.037 nM","cell scattering score, HPAF-II, 0.111 nM","cell scattering score, HPAF-II, 0.333 nM","cell scattering score, HPAF-II, 1.000 nM","cell scattering score, HPAF-II, 3.000 nM","cell scattering score, HPAF-II, 9.000 nM"
B1,0 score 0-4,1 score 0-4,2 score 0-4,3 score 0-4,4 score 0-4,4 score 0-4,4 score 0-4,4 score 0-4,4 score 0-4
B2,0 score 0-4,0 score 0-4,0 score 0-4,0 score 0-4,1 score 0-4,2 score 0-4,3 score 0-4,4 score 0-4,4 score 0-4
B3,0 score 0-4,0 score 0-4,0 score 0-4,0 score 0-4,0 score 0-4,0 score 0-4,1 score 0-4,2 score 0-4,2 score 0-4
B4,0 score 0-4,0 score 0-4,2 score 0-4,3 score 0-4,3 score 0-4,4 score 0-4,4 score 0-4,4 score 0-4,4 score 0-4

# Biological target: T4, mouse MET-Fc chimeric protein (R&D Systems) (mouse, UniProt P16056 25-929, limits assumed)
# T4 construct: bought (R&D Systems); also called mMET; not shown: Fc
# Assay: competition ELISA, mMET-Fc in solid phase, competitor 0.3 nM biotinylated mHGF
# Protocol: (§2) To investigate along this line, we tested the competition between mAbs and HGF by ELISA. Recombinant human and mouse HGF (R&D Systems) were biotinylated at the N-terminus using NHS-LC-biotin (Thermo Scientific). MET-Fc protein, either human or mouse (R&D Systems), was immobilized in solid phase and then exposed to 0.3 nM biotinylated HGF, either human or mouse, in the presence of increasing concentrations of antibodies (0-120 nM).
# (§3) A MET-Fc chimeric protein (either human or mouse) was immobilized in solid phase and exposed to a fixed concentration of biotinylated HGF (either human or mouse), in the presence of increasing concentrations of antibodies. […] Antibody-HGF competition is expressed as IC₅₀ (the concentration that achieves 50% competition) and IMAX (the maximum % competition reached at saturation).
row,Binder,IMAX (maximum % competition)
1,B1,90.5%
2,B2,89.2%
3,B3,91.3%
4,B4,87.7%

# Biological target: human MET ECD mutant E (mutations 2, 3, 4) (human) (UniProt P08581)
# Assay: ELISA, MET ECD mutant in solid phase, mAb 0-50 nM
row,Binder,% binding (EMAX) compared to WT MET
1,B1,43.6%
2,B2,59.6%
3,B3,57.2%
4,B4,65.4%

# Biological target: human MET ECD mutant D (mutations 1, 2) (human) (UniProt P08581)
# Assay: ELISA, MET ECD mutant in solid phase, mAb 0-50 nM
row,Binder,% binding (EMAX) compared to WT MET
1,B1,128%
2,B2,102%
3,B3,120%
4,B4,128%

# Biological target: human MET ECD mutant H (mutations 2, 4) (human) (UniProt P08581)
# Assay: ELISA, MET ECD mutant in solid phase, mAb 0-50 nM
row,Binder,% binding (EMAX) compared to WT MET
1,B1,38.6%
2,B2,61.6%
3,B3,58.7%
4,B4,76.7%

# Biological target: human MET ECD mutant A (mutations 1, 2, 3) (human) (UniProt P08581)
# Assay: ELISA, MET ECD mutant in solid phase, mAb 0-50 nM
row,Binder,% binding (EMAX) compared to WT MET
1,B1,103%
2,B2,99.8%
3,B3,114%
4,B4,117%

# Biological target: T3, native mouse MET on living mouse cells
# Assay: flow cytometry, MLP29 cells
# Protocol: as §1
row,Binder,EMAX (% relative to control)
1,B1,121%
2,B2,115%
3,B3,94.8%
4,B4,144%

# Biological target: T3, native mouse MET on living mouse cells
# Assay: cell-based or functional assay
# Remark: another data set of the same source
Binder,"protection from staurosporine, viability EC50, MLP29","protection from staurosporine, viability EMAX, MLP29"
B1,0.95 nM,68.3%
B2,31 nM,51.3%
B3,29.8 nM,52.1%
B4,< 0.5 nM,70.5%

# Biological target: T1, native human MET on living human cells
# Assay: cell-based or functional assay
# Remark: another data set of the same source
Binder,"protection from staurosporine, viability EC50, MCF10A","protection from staurosporine, viability EMAX, MCF10A"
B1,1.48 nM,66.8%
B2,31.9 nM,50.2%
B3,30.2 nM,51.7%
B4,< 0.5 nM,71.7%

# Biological target: T5, human MET-Fc chimeric protein (R&D Systems) (human, UniProt P08581 25-932)
# T5 construct: extracellular domain; bought (R&D Systems); also called hMET; not shown: Fc portion of human IgG1
# Assay: competition ELISA, hMET-Fc in solid phase, competitor 0.3 nM biotinylated hHGF
# Protocol: as §2, §3
row,Binder,IMAX (maximum % competition)
1,B1,98.3%
2,B2,93.6%
3,B3,95.6%
4,B4,93.4%
